Measurements: the supplement of paper PMC10567573

B1: PLK2 (parent)
chain: YAELGQCSVFPATDAPEQFISQVT

Variants of: B1
Assay: protein stability index of a GFP-peptide fusion (GPS, HEK-293T) (PSI 1-6); higher = more stable
Settings: c terminus: a fixed tail appended
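Further: lentivirally expressed fusions sorted by FACS into six bins by GFP to DsRed ratio, PSI derived from sequencing read proportions per bin multiplied by bin number.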

Variant | protein stability index
YAELCQCSVFPATDAPEQFISQVT [G5C] | 2.24
YAELNQCSVFPATDAPEQFISQVT [G5N] | 2.47
YAELRQCSVFPATDAPEQFISQVT [G5R] | 2.02
YAELTQCSVFPATDAPEQFISQVT [G5T] | 2.28
YAELQQCSVFPATDAPEQFISQVT [G5Q] | 2.53
YAELYQCSVFPATDAPEQFISQVT [G5Y] | 2.22
YAELKQCSVFPATDAPEQFISQVT [G5K] | 2.02
YAELSQCSVFPATDAPEQFISQVT [G5S] | 2.14
YAELPQCSVFPATDAPEQFISQVT [G5P] | 2.46
YAELGQCSVFPATDAPEQEISQVT [F19E] | 3.01
YAELGQCSVFPATDAPEQQISQVT [F19Q] | 2.81
YAELGQCSVFPATDAPEQPISQVT [F19P] | 2.4
YAELGQCSVFPATDAPEQWISQVT [F19W] | 1.9
YAELGQCSVFPATDAPEQMISQVT [F19M] | 2.43
YAELGQCSVFPATDAPEQRISQVT [F19R] | 3.85
YAELGQCSVFPATDAPEQAISQVT [F19A] | 2.19
YAELGQCSVFPATDGPEQFISQVT [A15G] | 2.38
YAELGQCSVFPATDCPEQFISQVT [A15C] | 2
YAELGQCSVFPATDYPEQFISQVT [A15Y] | 2.13
YAELGQCSVFPATDAPQQFISQVT [E17Q] | 2.9
YAELGQCSVFPATDAPIQFISQVT [E17I] | 1.75
YAELGQCSVFPATDAPAQFISQVT [E17A] | 1.92
YAELGQCSVFPATDAPPQFISQVT [E17P] | 2.12
YAELGQCSVFPATDAPVQFISQVT [E17V] | 1.78

Variant | protein stability index
YAELGQCSVFPATDAPRQFISQVT [E17R] | 1.62
YAELGQCSVFPATDAPLQFISQVT [E17L] | 2.33
YAELGQCSVFPATDAPGQFISQVT [E17G] | 2.15
YAELGQCSVFPATDAPYQFISQVT [E17Y] | 2.64
YAELGQCSVFPATDAPHQFISQVT [E17H] | 1.86
YAELGQCSVFPATDAPEQFESQVT [I20E] | 2.69
YAELGQCSVFPATDAPEQFYSQVT [I20Y] | 1.7
YAELGQCSVFPATDAPEQFWSQVT [I20W] | 1.27
YAELGQCSVFPATDAPEQFTSQVT [I20T] | 2.27
YAELGQCSVFPATDAPEQFFSQVT [I20F] | 2.54
YAELGQCSVFPATDAPEQFKSQVT [I20K] | 2.15
YAELGQCSVFPATDAPEQFHSQVT [I20H] | 2.96
YAELGQCSTFPATDAPEQFISQVT [V9T] | 3.12
YAELGQCSNFPATDAPEQFISQVT [V9N] | 3.02
YAELGQCSSFPATDAPEQFISQVT [V9S] | 3.34
YAELGQCSGFPATDAPEQFISQVT [V9G] | 2.27
YAELGQCSIFPATDAPEQFISQVT [V9I] | 2.62
YAELGQCSDFPATDAPEQFISQVT [V9D] | 4.25
YAELGQCSCFPATDAPEQFISQVT [V9C] | 2.42
KAELGQCSVFPATDAPEQFISQVT [Y1K] | 4.16
HAELGQCSVFPATDAPEQFISQVT [Y1H] | 4
SAELGQCSVFPATDAPEQFISQVT [Y1S] | 4.09
PAELGQCSVFPATDAPEQFISQVT [Y1P] | 4.5
RAELGQCSVFPATDAPEQFISQVT [Y1R] | 3.78

Variant | protein stability index
WAELGQCSVFPATDAPEQFISQVT [Y1W] | 2.84
AAELGQCSVFPATDAPEQFISQVT [Y1A] | 4.32
DAELGQCSVFPATDAPEQFISQVT [Y1D] | 4.58
MAELGQCSVFPATDAPEQFISQVT [Y1M] | 3.63
TAELGQCSVFPATDAPEQFISQVT [Y1T] | 3.99
YAELGQCTVFPATDAPEQFISQVT [S8T] | 2.28
YAELGQCFVFPATDAPEQFISQVT [S8F] | 2.53
YAELGQCVVFPATDAPEQFISQVT [S8V] | 2
YAELGQCPVFPATDAPEQFISQVT [S8P] | 2.04
YAELGQCQVFPATDAPEQFISQVT [S8Q] | 2.08
YAELGQCKVFPATDAPEQFISQVT [S8K] | 2.04
YAELGQCMVFPATDAPEQFISQVT [S8M] | 1.66
YARLGQCSVFPATDAPEQFISQVT [E3R] | 2.09
YACLGQCSVFPATDAPEQFISQVT [E3C] | 2.21
YAKLGQCSVFPATDAPEQFISQVT [E3K] | 2.17
YAYLGQCSVFPATDAPEQFISQVT [E3Y] | 1.85
YAGLGQCSVFPATDAPEQFISQVT [E3G] | 1.85
YAALGQCSVFPATDAPEQFISQVT [E3A] | 1.85
YAPLGQCSVFPATDAPEQFISQVT [E3P] | 2.27
YADLGQCSVFPATDAPEQFISQVT [E3D] | 2.19
YAQLGQCSVFPATDAPEQFISQVT [E3Q] | 2.02
YAELGQCSVFPATDAPEQFIEQVT [S21E] | 2.75
YAELGQCSVFPATDAPEQFIGQVT [S21G] | 2.26
YAELGQCSVFPATDAPEQFIDQVT [S21D] | 2.72

Variant | protein stability index
YAELGQCSVFPATDAPEQFIWQVT [S21W] | 2.92
YAELGQCSVFPATDAPEQFIPQVT [S21P] | 2.41
YAELGQCSVFPATDAPEQFIVQVT [S21V] | 1.9
YAELGQCSVFPATDAPEQFILQVT [S21L] | 2.59
YAELGQCSVFPATDAPEQFIKQVT [S21K] | 2.35
YAELGQCSVFPATDAPEQFICQVT [S21C] | 1.53
YAELGQCSVFPATDAPEQFINQVT [S21N] | 2.14
YAELGQCSVFPATDAPEQFISQNT [V23N] | 2.58
YAELGQCSVFPATDAPEQFISQKT [V23K] | 2.38
YAELGQCSVFPATDAPEQFISQST [V23S] | 2.96
YAELGQCSVFPATDAPEQFISQTT [V23T] | 2.48
YAELGQCSVFPATDAPEQFISQFT [V23F] | 1.89
YAELGQCSVFPATDAPEQFISQLT [V23L] | 1.91
YAELGQCSVFPATDAPEQFISQMT [V23M] | 2.29
YAELGQCSVFPVTDAPEQFISQVT [A12V] | 2.1
YAELGQCSVFPDTDAPEQFISQVT [A12D] | 2.81
YAELGQCSVFPGTDAPEQFISQVT [A12G] | 2.39
YAELGQCSVFPRTDAPEQFISQVT [A12R] | 1.63
YAELGQCSVFPQTDAPEQFISQVT [A12Q] | 2.6
YAELGQCSVFPYTDAPEQFISQVT [A12Y] | 1.95
YAELGQCSVFPWTDAPEQFISQVT [A12W] | 2.14
YAELGQCSVFPPTDAPEQFISQVT [A12P] | 2.47
